Patent US20250340890A1

Target: human angiotensin converting enzyme 2 (hACE2) (human) (UniProt Q9BYF1)

Substance | Absorbance (λ450 nm), after background correction, Average (absorbance units) | Absorbance (λ450 nm), after background correction, Trial 1 (absorbance units) | Absorbance (λ450 nm), after background correction, Trial 2 (absorbance units) | Absorbance (λ450 nm), after background correction, Trial 3 (absorbance units) | Absorbance (λ450 nm), before background correction, Trial 1 (absorbance units) | Absorbance (λ450 nm), before background correction, Trial 2 (absorbance units) | Absorbance (λ450 nm), before background correction, Trial 3 (absorbance units)
His-tagged Delta variant SARS-CoV-2 S1S2 protein (ligand) | 0.551 | 0.538 | 0.558 | 0.557 | 0.578 | 0.598 | 0.597
His-tagged Omicron variant SARS-CoV-2 S1S2 protein (ligand) | 0.489 | 0.482 | 0.49 | 0.494 | 0.522 | 0.53 | 0.534
